Measurements taken from patent US8129345B2, “MUC1-IκB kinase complexes and their activities” (Dana-Farber Cancer Institute, Inc., priority 2006, dated 2012).

Legend:
IKKβ = biological target: T1, IKKβ (Homo sapiens, UniProt O14920); experiment: In vitro GST pull-down binding to IKKβ; settings: GST pull-down with purified proteins, immunoblot
T1 sequence (O14920 1-756): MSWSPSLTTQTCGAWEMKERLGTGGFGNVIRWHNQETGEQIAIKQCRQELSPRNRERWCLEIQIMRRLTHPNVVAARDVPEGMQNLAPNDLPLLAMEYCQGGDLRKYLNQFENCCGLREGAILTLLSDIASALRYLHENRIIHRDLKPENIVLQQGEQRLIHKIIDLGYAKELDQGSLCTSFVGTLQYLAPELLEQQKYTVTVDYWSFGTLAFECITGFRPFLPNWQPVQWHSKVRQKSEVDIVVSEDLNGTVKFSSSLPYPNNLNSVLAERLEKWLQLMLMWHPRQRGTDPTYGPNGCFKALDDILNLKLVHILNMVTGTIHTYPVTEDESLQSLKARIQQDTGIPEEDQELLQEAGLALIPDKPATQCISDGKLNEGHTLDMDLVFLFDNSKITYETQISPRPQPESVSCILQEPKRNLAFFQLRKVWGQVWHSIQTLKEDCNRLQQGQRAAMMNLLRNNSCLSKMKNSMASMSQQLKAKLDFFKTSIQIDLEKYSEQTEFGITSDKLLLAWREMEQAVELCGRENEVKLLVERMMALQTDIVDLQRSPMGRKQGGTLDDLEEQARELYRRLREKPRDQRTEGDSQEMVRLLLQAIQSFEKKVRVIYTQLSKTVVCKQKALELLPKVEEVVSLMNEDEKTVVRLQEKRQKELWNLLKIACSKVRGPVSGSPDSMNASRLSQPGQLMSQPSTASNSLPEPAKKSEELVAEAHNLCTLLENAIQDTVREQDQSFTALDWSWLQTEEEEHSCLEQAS
Procedure: FIG. 4B is a pair of photographs of immunoblots. Recombinantly expressed, purified GST- and GST-IKKβ proteins bound to glutathione-agarose beads were incubated with purified MUC1-CD protein. The precipitates were immunoblotted (IB) with anti-MUC1-C antibodies. Input of the GST and GST-IKKβ proteins was assessed by Coomassie blue staining. The molecular weights of proteins (as indicated on the left of the photographs) are expressed as kilodaltons (kDa).
FIG. 4C (top panel) is a schematic diagram of the amino acid sequence of (i) the MUC1-cytoplasmic domain (MUC1-CD) [amino acids 1-72; SEQ ID NO:2]; (ii) the MUC1-CD fragment [amino acids 1-45; SEQ ID NO:3]; and (iii) the MUC-CD fragment [amino acids 46-72; SEQ ID NO:4]. FIG. 4C (bottom panel) is a photograph of an immunoblot and a photograph of a Coomassie blue-stained electrophoretic gel. GST- and the indicated GST-MUC1-CD fusion proteins bound to glutathione beads were incubated with purified IKKβ. The precipitates were immunoblotted with anti-IKKβ. Input of the GST and GST-MUC1-CD fusion proteins was assessed by Coomassie blue staining. The molecular weights of proteins (as indicated on the left of the photographs) are expressed as kilodaltons (kDa).
(§1) FIG. 11A is a pair of photographs of an immunoblot and Coomassie-blue stained gel. GST and the indicated GST-MUC1-CD fusion proteins (MUC1-CD and MUC1-CD(mSRM)) bound to glutathione beads were incubated with IKKβ. The precipitates were immunoblotted (IB) with an anti-IKKβ antibody. Commassie blue staining of the gel was performed to confirm that equal amounts of GST- and GST-MUC1-CD proteins were used in the experiment. The molecular weights of proteins (as indicated on the left of the photographs) are expressed as kilodaltons (kDa).
In vitro binding assays. Purified GST-MUC1-CD (glutathione s-transferase fused to the MUC1-CD polypeptide) was cleaved with thrombin to remove the GST moiety. […] Adsorbates to glutathione-conjugated beads were analyzed by immunoblotting.

IKKγ = IKKγ (Homo sapiens, UniProt Q9Y6K9); experiment: In vitro GST pull-down binding to IKKγ
Procedure: FIG. 5B is a pair of photographs of immunoblots showing an interaction between MUC1-CD and IKKγ. GST- and GST-IKKγ bound to glutathione beads were incubated with purified MUC1-CD. The precipitates were immunoblotted (IB) with anti-MUC1-C antibodies. Commassie blue staining of the gel was performed to confirm that equal amounts of GST- and GST-IKKγ were used in the experiment. The molecular weights of proteins (as indicated on the left of the photographs) are expressed as kilodaltons (kDa).
FIG. 5C is a pair of photographs of immunoblots. GST- and the indicated GST-MUC1-CD fusion proteins or fragments bound to glutathione beads were incubated with purified IKKγ. The precipitates were immunoblotted (IB) with anti-IKKγ antibody. Commassie blue staining of the gel was performed to confirm that equal amounts of GST- and GST-MUC1 proteins were used in the experiment. The molecular weights of proteins (as indicated on the left of the photographs) are expressed as kilodaltons (kDa).
FIG. 5D is a pair of photographs of immunoblots. GST and the indicated GST-IKKγ fusion proteins bound to glutathione beads were incubated with MUC1-CD. The precipitates were immunoblotted (IB) with anti-MUC1-C antibody. Commassie blue staining of the gel was performed to confirm that equal amounts of GST- and GST-IKKγ proteins were used in the experiment. The molecular weights of proteins (as indicated on the left of the photographs) are expressed as kilodaltons (kDa).
as §1, with “11B” for “11A”, “Coomassie blue” for “Coomassie-blue”, “IKKγ.” for “IKKβ.”, “anti-IKKγ” for “anti-IKKβ”
In vitro binding assays. Purified GST-MUC1-CD (glutathione s-transferase fused to the MUC1-CD polypeptide) was cleaved with thrombin to remove the GST moiety. GST, GST-IKKβ (DiDonato et al. (1997) Nature 388:548-554), GST-IKKβ (1-458), GST-IKKβ (458-756), GST-IKKγ (Prajapati et al. (2002) J. Biol. Chem. 277:24331-24339), GST-IKKγ (1-196) or GST-IKKγ (197-419) were then incubated with the MUC1-CD for 1 hour at 25° C. In other experiments, GST, GST-MUC1-CD, GST-MUC1-CD(1-45) or GST-MUC1-CD(46-72) were incubated with purified IKKβ or IKKγ. Adsorbates to glutathione-conjugated beads were analyzed by immunoblotting.

- binding to IKKβ (IKKβ): interact directly
- binding to IKKγ (IKKγ; GST pull-down with purified proteins, immunoblot): binds to purified IKKγ
Substance: MUC1-CD: 72 amino acid cytoplasmic domain of human MUC1, SEQ ID NO:2
- region of IKKγ bound by MUC1-CD (IKKγ; GST-IKKγ (1-196) and GST-IKKγ (197-419) incubated with MUC1-CD): binds to the C-terminal region (197-419) of IKKγ
